Publication PMC10470895
Where “and” joins values, the source holds several entries; their conditions need not be identical. Equal entries are not always repeated. Each block holds one substance with its values, some of them ahead of it.

How the values were obtained:
[1] = molecular target: Pyruvate kinase M2 (PKM2) of the X. laevis oocyte nucleus (X. laevis (endogenous in oocytes)); experiment: native gel or EMSA; oocyte nuclear homogenate, native PAGE as in Sen et al. (2016), 2x loading buffer with 200 mM KCl, Western blotting with anti-PKM2; Precision Plus markers
[2] = molecular target: X. laevis oocyte GAPDH (glyceraldehyde 3-phosphate dehydrogenase, somatic form; GAPDH.s and GAPDH.l) (X. laevis (endogenous in oocytes)) (UniProt P51469); experiment: native gel or EMSA; oocyte nuclear (up to 0.5 nuclei) and cytoplasmic (0.05 cytoplasm) homogenates in HR buffer on Invitrogen 4-16% NativePAGE Bis-Tris gel, Western blotting; compared with the bands of recombinant human GAPDH; second-dimension SDS-PAGE for cytoplasm
[3] = molecular target: recombinant human GAPDH (glyceraldehyde 3-phosphate dehydrogenase) (human) (UniProt P04406); experiment: native gel or EMSA; purified recombinant human GAPDH (1 ug) on Invitrogen 4-16% NativePAGE Bis-Tris gel, Western blotting; bands confirmed as GAPDH by second-dimension SDS-PAGE (about 36 kDa)

Chain of recombinant human GAPDH (glyceraldehyde 3-phosphate dehydrogenase), P04406 1-335 (enzyme; other documents disagree on this pair) (P04406 whole entry): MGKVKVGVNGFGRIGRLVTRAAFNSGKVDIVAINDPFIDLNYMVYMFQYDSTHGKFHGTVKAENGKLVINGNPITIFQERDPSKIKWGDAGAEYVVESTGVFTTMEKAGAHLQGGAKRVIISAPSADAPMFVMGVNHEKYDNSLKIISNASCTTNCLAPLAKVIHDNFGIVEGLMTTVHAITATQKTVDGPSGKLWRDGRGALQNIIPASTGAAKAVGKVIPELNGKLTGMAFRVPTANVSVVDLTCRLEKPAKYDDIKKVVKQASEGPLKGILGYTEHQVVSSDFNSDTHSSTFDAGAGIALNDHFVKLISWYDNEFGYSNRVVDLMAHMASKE
Chain of X. laevis oocyte GAPDH (glyceraldehyde 3-phosphate dehydrogenase, somatic form; GAPDH.s and GAPDH.l) (P51469 whole entry): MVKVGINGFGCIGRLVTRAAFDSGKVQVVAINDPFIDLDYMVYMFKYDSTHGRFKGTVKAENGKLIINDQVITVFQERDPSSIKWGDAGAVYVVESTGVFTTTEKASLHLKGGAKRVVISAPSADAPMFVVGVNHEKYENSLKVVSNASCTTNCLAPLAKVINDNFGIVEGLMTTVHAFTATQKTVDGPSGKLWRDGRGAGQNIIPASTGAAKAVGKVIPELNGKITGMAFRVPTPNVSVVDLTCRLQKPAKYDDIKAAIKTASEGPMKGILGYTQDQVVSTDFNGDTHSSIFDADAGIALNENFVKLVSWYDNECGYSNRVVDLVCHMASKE

- stoichiometry N [1]: 4
Substance: Pyruvate kinase M2 (PKM2) of the X. laevis oocyte nucleus (enzyme)

- stoichiometry N [2]: 4
Substance: X. laevis oocyte GAPDH (glyceraldehyde 3-phosphate dehydrogenase, somatic form; GAPDH.s and GAPDH.l) (from UniProt P51469 1-333) (enzyme)

- stoichiometry N [3]: 2 and 4
Substance: recombinant human GAPDH (glyceraldehyde 3-phosphate dehydrogenase), P04406 1-335 (enzyme; other documents disagree on this pair)
